Measurements published in patent publication US20170307628A1 (EIDGENOESSISCHE TECHNISCHE HOCHSCHULE ZURICH, published 2017).

Molecular target: T1, EGFR on cells (UniProt P00533 25-1210, limits assumed)
T1 construct: whole, on cells; also called epidermal growth factor receptor
Test: flow cytometry on MDA-MB-468 cells, anti-human-Alexa 488

binding result: no binding (tested: 100 nM)
B1: anti-CD3 antibody (COVA489) (antibody, human IgG1, kappa, V domains shown)
VH: QVQLQQSGAELARPGASVKMSCKASGYTFTRSTMHWVKQRPGQGLEWIGYINPSSAYTNYNQKFKDKATLTADKSSSTAYMQLSSLTSEDSAVYYCASPQVHYDYNGFPYWGQGTLVTVSA
VL: QVVLTQSPAIMSAFPGEKVTMTCSASSSVSYMNWYQQKSGTSPKRWIYDSSKLASGVPARFSGSGSGTSYSLTISSMETEDAATYYCQQWSRNPPTFGGGTKLQITR
